The text below walks through data of patent publication US20210379129A1 (BIOCOMO INCORPORATION, published 2021).

Assay [1] deals with T1, mouse 4-1BBL incorporated into the envelope of BC-PIV particles (mouse, UniProt P41274 1-309, Membrane-anchored type II protein on the BC-PIV envelope; paragraph 280 expects trimers that associate into higher multimers; one protomer is given.).
T1 construct: Whole membrane protein on virus particles coated on the ELISA plate; also called mouse 4-1BBL-carrying BC-PIV; BC-PIV/4-1BBL
T1 sequence: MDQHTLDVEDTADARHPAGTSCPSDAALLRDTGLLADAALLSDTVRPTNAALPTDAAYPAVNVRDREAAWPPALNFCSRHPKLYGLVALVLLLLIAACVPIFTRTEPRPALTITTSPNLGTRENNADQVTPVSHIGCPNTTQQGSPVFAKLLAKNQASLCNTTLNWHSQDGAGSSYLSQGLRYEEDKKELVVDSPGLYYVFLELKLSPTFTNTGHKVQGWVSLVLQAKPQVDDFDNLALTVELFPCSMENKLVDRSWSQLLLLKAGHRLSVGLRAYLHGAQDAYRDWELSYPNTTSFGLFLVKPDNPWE
As to the kind of experiment: ELISA: 1x10^6 BC-PIV particles coated per well, receptor-Fc added at 1, 10, 50, 100 ng, HRP-Protein A, absorbance at 450 nm.

Assay [2] has as its target T2, mouse OX40L incorporated into the envelope of BC-PIV particles (mouse, UniProt P43488 1-198, Membrane-anchored type II protein on the BC-PIV envelope, expected as a homotrimer; one protomer is given.).
T2 construct: Whole membrane protein on virus particles coated on the ELISA plate (1x10^6 particles per well); The form 'whole, on cells' is the nearest choice; the carrier is a virus envelope; also called mouse OX40L-carrying BC-PIV; BC-PIV/OX40L
T2 sequence: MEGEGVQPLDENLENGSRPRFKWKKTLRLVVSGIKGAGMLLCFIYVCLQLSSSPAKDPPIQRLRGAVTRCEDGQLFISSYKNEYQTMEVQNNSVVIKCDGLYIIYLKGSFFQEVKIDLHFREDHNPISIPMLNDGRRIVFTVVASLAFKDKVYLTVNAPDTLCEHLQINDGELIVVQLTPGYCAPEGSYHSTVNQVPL
The assay is described as above.

The target of assay [3] is T3, human OX40 receptor (BioLegend Inc, Cat #780804) (human, UniProt P43489 29-214).
T3 construct: Bought reagent; No Fc tag is stated for this one, but detection was by HRP-Protein A 'adsorbed on the human Fc region', so a human Fc tag is likely; also called human OX40 receptor protein
T3 sequence: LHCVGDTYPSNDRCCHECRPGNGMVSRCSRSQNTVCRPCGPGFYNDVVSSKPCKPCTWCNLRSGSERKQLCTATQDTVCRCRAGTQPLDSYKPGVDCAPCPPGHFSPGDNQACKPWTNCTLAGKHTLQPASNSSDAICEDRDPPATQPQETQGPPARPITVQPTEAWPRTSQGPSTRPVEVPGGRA
Briefly: ELISA: 1x10^6 BC-PIV particles coated per well, receptor added at 1, 10, 50, 100 ng, HRP-Protein A, absorbance at 450 nm. (In general: In an ELISA, binding on a coated surface is turned into a signal by an enzyme label.)

B1: mouse 4-1BB receptor (C-terminal human IgG Fc Tag; BioLegend Inc, Cat #756704) (Fc fusion)
chain: VQNSCDNCQPGTFCRKYNPVCKSCPPSTFSSIGGQPNCNICRVCAGYFRFKKFCSSTHNAECECIEGFHCLGPQCTRCEKDCRPGQELTKQGCKTCSLGTFNDQNGTGVCRPWTNCSLDGRSVLKTGTTEKDVVCGPPVVSFSPSTTISVTPEGGPGGHSLQVL
notes: Bought reagent; also called mouse 4-1BB receptor protein; not shown: C-terminal human IgG Fc tag
For the molecule B1, the binding result in assay [1] is given as “binds”.

B2: trimeric mouse OX40 receptor (C-terminal human IgG Fc Tag; BioLegend Inc, Cat #78904) (Fc fusion)
chain: VTARRLNCVKHTYPSGHKCCRECQPGHGMVSRCDHTRDTLCHPCETGFYNEAVNYDTCKQCTQCNHRSGSELKQNCTPTQDTVCRCRPGTQPRQDSGYKLGVDCVPCPPGHFSPGNNQACKPWTNCTLSGKQTRHPASDSLDAVCEDRSLLATLLWETQRPTFRPTTVQSTTVWPRTSELPSPPTLVTPEGP
notes: Bought reagent, called 'trimeric'; not shown: C-terminal human IgG Fc tag
Regarding B2, the binding result in assay [2] is “binds”.

B3: human OX40L incorporated into the envelope of BC-PIV particles (ligand)
chain: MERVQPLEENVGNAARPRFERNKLLLVASVIQGLGLLLCFTYICLHFSALQVSHRYPRIQSIKVQFTEYKKEKGFILTSQKEDEIMKVQNNSVIINCDGFYLISLKGYFSQEVNISLHYQKDEEPLFQLKKVRSVNSLMVASLTYKDKVYLNVTTDNTSLDDFHVNGGELILIHQNPGEFCVL
modifications: Membrane-anchored type II protein on the BC-PIV envelope, expected as a homotrimer; one protomer is given.
notes: Whole membrane protein on virus particles coated on the ELISA plate; also called human OX40L-carrying BC-PIV
As to B3, the binding result in assay [3] is given as “binds”.
